Tests used:
[1] = target: T1, TDRD5 LOTUS domain 2 (L2) (Mus musculus, UniProt Q5VCS6 122-197); assay: pull-down
T1 sequence: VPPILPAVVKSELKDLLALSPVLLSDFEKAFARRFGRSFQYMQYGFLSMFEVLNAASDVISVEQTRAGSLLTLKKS

[2] = target: T2, TDRD5 LOTUS domain 1 (L1) (Mus musculus, UniProt Q5VCS6 7-80); assay: pull-down
T2 sequence: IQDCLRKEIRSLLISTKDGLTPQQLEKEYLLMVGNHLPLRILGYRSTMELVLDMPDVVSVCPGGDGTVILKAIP

[3] = target: T3, TDRD5 LOTUS domain 3 (L3) (Mus musculus, UniProt Q5VCS6 291-365); assay: pull-down
T3 sequence: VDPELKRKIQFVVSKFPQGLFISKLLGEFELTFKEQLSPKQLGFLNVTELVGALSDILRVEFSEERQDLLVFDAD

[4] = target: T3, TDRD5 LOTUS domain 3 (L3); assay: pull-down, ELISA

Binder | binding result [1] | binding result [2] | binding result [3] | binding result [4]
AGGACCGAAGCCGAGCCGAGCC (ssRNA) [Cluster G4-2 mut RNA] | no binding | no binding | no binding | 
GUGUGUGUGUGUGUGUGUGUGUGUGUGUGU (ssRNA) [Poly(GU)] |  |  | no binding | 
CUCUCUCUCUCUCUCUCUCUCUCUCUCUCU (ssRNA) [Poly(CU)] | no binding | no binding | no binding | 
CACACACACACACACACACACACACACACA (ssRNA) [Poly(CA)] | no binding | no binding | no binding | 
GAGAGAGAGAGAGAGAGAGAGAGAGAGAGA (ssRNA) [Poly(GA)] |  |  | no binding | 
AGGAGGGAAGGGGAGGGGAGGG (structured_RNA) [Cluster G4-2 RNA] |  |  |  | no binding

From paper PMC7498356
